{"source": "the RNAGym collection of RNA variant scans (doi:10.1093/molbev/msab373)", "parents": {"B1": {"name": "Azoarcus group I ribozyme (parent)", "chain": "GUGCCUUGCGCCGGGAAACCACGCAAGGGAUGGUGUCAAAUUCGGCGAAACCUAAGCGCCCGCCCGGGCGUAUGGCAACGCCGAGCCAAGCUUCGGCGCCUGCGCCGAUGAAGGUGUAGAGACUAGACGGCACCCACCUAAGGCAAACGCUAUGGUGAAGGCAUAGUCCAGGGAGUGGCGAAAGUCACACAAACCGG"}}}
{"variants_of": "B1", "assay": "reverse-splicing fitness (ratio to wild type); higher = more active; in vitro selection; Mg2+ level not given", "summary_of_the_method": "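An in vitro group I ribozyme library with randomized positions was T7-transcribed and gel-purified. In triplicate, 10 pmol RNA in EPPS pH 7.5 was reacted with 50 pmoles of a 30-nt RNA substrate for 1 h at 37 °C across several added MgCl2 levels (1–48 mM), then stopped with EDTA. Products were reverse transcribed from a substrate-complementary primer, PCR-amplified and sequenced (HiSeq 4000). Fitness is a variant's read proportion after selection over that before, normalised to wild type.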"}
{"variant": "C82U A111G A120C A145C C150G U176A", "reverse-splicing fitness": 0.00388}
{"variant": "C82U A111C A145G C169G U176G", "reverse-splicing fitness": 0.00682}
{"variant": "C82U A111C A145G C169G U176A", "reverse-splicing fitness": 0.0236}
{"variant": "C82U A111C A145G C169G U176C", "reverse-splicing fitness": 0.0306}
{"variant": "C82U A111C C150U C169A", "reverse-splicing fitness": 0.00914}
{"variant": "C82U A111C C150U C169U", "reverse-splicing fitness": 0.0116}
{"variant": "C82U A111C C150U C169G", "reverse-splicing fitness": 0.00731}
{"variant": "C82U A111C C150A C169G U176G", "reverse-splicing fitness": 0.00835}
{"variant": "C82U A111C C150A C169G U176A", "reverse-splicing fitness": 0.0162}
{"variant": "C82U A111C C150A C169G U176C", "reverse-splicing fitness": 0.0236}
{"variant": "C82U A111G A120C A145G C150A U176A", "reverse-splicing fitness": 0.0119}
{"variant": "C82U A111G A120C A145G C150A U176G", "reverse-splicing fitness": 0.00727}
{"variant": "C82U A111G A120C A145G C150A U176C", "reverse-splicing fitness": 0.0246}
{"variant": "C82U A111C C150A C169U U176A", "reverse-splicing fitness": 0.0166}
{"variant": "C82U A111C C150A C169U U176G", "reverse-splicing fitness": 0.00777}
{"variant": "C82U A111C C150A C169U U176C", "reverse-splicing fitness": 0.0169}
{"variant": "C82U A111G A120C A145C C169U U176A", "reverse-splicing fitness": 0.0142}
{"variant": "C82U A111G A120C A145C C169U U176C", "reverse-splicing fitness": 0.0107}
{"variant": "C82U A111G A120C A145C C169U U176G", "reverse-splicing fitness": 0.0032}
{"variant": "C82U A111C C150G C169U U176A", "reverse-splicing fitness": 0.00814}
{"variant": "C82U A111C C150G C169U U176C", "reverse-splicing fitness": 0.0111}
{"variant": "C82U A111C C150G C169U U176G", "reverse-splicing fitness": 0.00577}
{"variant": "C82U A111C A145G C150G U176A", "reverse-splicing fitness": 0.0105}
{"variant": "C82U A111C A145G C150G U176C", "reverse-splicing fitness": 0.0166}
{"variant": "C82U A111C A145G C150G U176G", "reverse-splicing fitness": 0.00671}
{"variant": "C82U A111G A120C A145C C150A C169G U176A", "reverse-splicing fitness": 0.0198}
{"variant": "C82U A111G A120C A145C C150A C169G U176G", "reverse-splicing fitness": 0.00451}
{"variant": "C82U A111G A120C A145C C150A C169G U176C", "reverse-splicing fitness": 0.00993}
{"variant": "C82U A111C A145G U176C", "reverse-splicing fitness": 0.113}
{"variant": "C82U A111C A145G U176A", "reverse-splicing fitness": 0.0861}
{"variant": "C82U A111C A145G U176G", "reverse-splicing fitness": 0.0201}
{"variant": "C82U A111G A120C A145C C150A C169U U176A", "reverse-splicing fitness": 0.0146}
{"variant": "C82U A111G A120C A145C C150A C169U U176C", "reverse-splicing fitness": 0.0104}
{"variant": "C82U A111G A120C A145C C150A C169U U176G", "reverse-splicing fitness": 0.00393}
{"variant": "C82U A111G A120C A145U C150G C169A U176C", "reverse-splicing fitness": 0.00798}
{"variant": "C82U A111G A120C A145U C150G C169A U176A", "reverse-splicing fitness": 0.00839}
{"variant": "C82U A111G A120C A145U C150G C169A U176G", "reverse-splicing fitness": 0.00477}
{"variant": "C82U A111C C169A", "reverse-splicing fitness": 0.00958}
{"variant": "C82U A111C C169U", "reverse-splicing fitness": 0.0123}
{"variant": "C82U A111C C169G", "reverse-splicing fitness": 0.00866}
{"variant": "C82U A111G A120C A145C C150A U176A", "reverse-splicing fitness": 0.00938}
{"variant": "C82U A111G A120C A145C C150A U176C", "reverse-splicing fitness": 0.00767}
{"variant": "C82U A111G A120C A145C C150A U176G", "reverse-splicing fitness": 0.0038}
{"variant": "C82U A111C A145U C150G C169A U176G", "reverse-splicing fitness": 0.00824}
{"variant": "C82U A111C A145U C150G C169A U176C", "reverse-splicing fitness": 0.0103}
{"variant": "C82U A111C A145U C150G C169A U176A", "reverse-splicing fitness": 0.00909}
{"variant": "C82U A111C A145G C150G C169G U176G", "reverse-splicing fitness": 0.00571}
{"variant": "C82U A111C A145G C150G C169G U176C", "reverse-splicing fitness": 0.0117}
{"variant": "C82U A111C A145G C150G C169G U176A", "reverse-splicing fitness": 0.00912}
{"variant": "C82U A111G A120C A145C C150A", "reverse-splicing fitness": 0.00803}
{"variant": "C82U A111G A120C A145C C150G", "reverse-splicing fitness": 0.00936}
{"variant": "C82U A111G A120C A145C C150U", "reverse-splicing fitness": 0.0145}
{"variant": "C82U A111C C150A C169A U176C", "reverse-splicing fitness": 0.0175}
{"variant": "C82U A111C C150A C169A U176A", "reverse-splicing fitness": 0.0162}
{"variant": "C82U A111C C150A C169A U176G", "reverse-splicing fitness": 0.00821}
{"variant": "C82U A111G A120C A145G C150U C169U U176C", "reverse-splicing fitness": 0.0127}
{"variant": "C82U A111G A120C A145G C150U C169U U176A", "reverse-splicing fitness": 0.0147}
{"variant": "C82U A111G A120C A145G C150U C169U U176G", "reverse-splicing fitness": 0.00448}
{"variant": "C82U A111C A145G C169G", "reverse-splicing fitness": 0.00955}
{"variant": "C82U A111C A145G C169A", "reverse-splicing fitness": 0.00937}
{"variant": "C82U A111C A145G C169U", "reverse-splicing fitness": 0.012}
{"variant": "C82U A111C A145U C169U U176A", "reverse-splicing fitness": 0.0163}
{"variant": "C82U A111C A145U C169U U176C", "reverse-splicing fitness": 0.0143}
{"variant": "C82U A111C A145U C169U U176G", "reverse-splicing fitness": 0.00634}
{"variant": "C82U A111G A120C A145G C169U U176G", "reverse-splicing fitness": 0.00401}
{"variant": "C82U A111G A120C A145G C169U U176A", "reverse-splicing fitness": 0.0141}
{"variant": "C82U A111G A120C A145G C169U U176C", "reverse-splicing fitness": 0.0146}
{"variant": "C82U A111C A145G C150A U176A", "reverse-splicing fitness": 0.0169}
{"variant": "C82U A111C A145G C150A U176G", "reverse-splicing fitness": 0.00984}
{"variant": "C82U A111C A145G C150A U176C", "reverse-splicing fitness": 0.0313}
{"variant": "C82U A111G A120C A145C C150G C169A U176G", "reverse-splicing fitness": 0.00425}
{"variant": "C82U A111G A120C A145C C150G C169A U176A", "reverse-splicing fitness": 0.00643}
{"variant": "C82U A111G A120C A145C C150G C169A U176C", "reverse-splicing fitness": 0.00573}
{"variant": "C82U A111C A145G C150U C169U", "reverse-splicing fitness": 0.00955}
{"variant": "C82U A111C A145G C150U C169A", "reverse-splicing fitness": 0.00963}
{"variant": "C82U A111C A145G C150U C169G", "reverse-splicing fitness": 0.00802}
{"variant": "C82U A111G A120C A145U C150A C169A U176A", "reverse-splicing fitness": 0.0128}
{"variant": "C82U A111G A120C A145U C150A C169A U176C", "reverse-splicing fitness": 0.00758}
{"variant": "C82U A111G A120C A145U C150A C169A U176G", "reverse-splicing fitness": 0.00469}
{"variant": "C82U A111C C150U U176G", "reverse-splicing fitness": 0.0125}
{"variant": "C82U A111C C150U U176A", "reverse-splicing fitness": 0.0385}
{"variant": "C82U A111C C150U U176C", "reverse-splicing fitness": 0.0667}
{"variant": "C82U A111C A145U C150G C169G U176C", "reverse-splicing fitness": 0.00532}
